Columns and labels:
Assay in all cases: cell_activity
[1] = system: ZnF-MLT transposase, non-covalent linker (Myotis lucifugus); conditions: HEK293 landing pad, amplicon-seq
[2] = system: ZnF-MLT transposase fusion, covalent linker (Myotis lucifugus); conditions: amplicon-seq
[3] = system: MLT K350A S8P,C13R,K350A (Myotis lucifugus); conditions: HEK293; integration >=10% GFP
[4] = system: MLT K350A/D416A S8P,C13R,K350A,D416A (Myotis lucifugus); conditions: HEK293; integration >=10% GFP

| Substance | activity (% of reads on target) [1] | activity (% of reads on target) ([2]; HEK293 plasmid landing pad, TTAA 15 bp from site) | activity (% of reads on target) ([2]; HEK293 landing pad) | activity (% GFP excision) [3] | activity (% GFP excision) [4] |
| --- | --- | --- | --- | --- | --- |
| CTCCACTGTGGGGTGCCGCAGTGGAGATGACTTGTTTGTTAACGGCACTTTAACAG (double strand) [Landing pad, ZnF sites on both sides of TTAA] | 29 | 42 | – | – | – |
| Landing pad, single ZnF site next to TTAA | 12 | – | 24 | – | – |
| TTAACACTTGGATTGCGGGAAACGAGTTAAGTCGGCTCGCGTGAATTGCGCGTACTCCGCGGGAGCCGTCTTAACTCGGTTCATATAGATTTGCGGTGGAGTGCGGGAAACGTGTAAACTCGGGCCGATTGTAACTGCGTATTACCAAATATTTGTT / AATTATTTATGTACTGAATAGATAAAAAAATGTCTGTGATTGAATAAATTTTCATTTTTTACACAAGAAACCGAAAATTTCATTTCAATCGAACCCATACTTCAAAAGATATAGGCATTTTAAACTAACTCTGATTTTGCGCGGGAAACCTAAATAATTGCCCGCGCCATCTTATATTTTGGCGGGAAATTCACCCGACACCGTAGTGTTAA [MLT donor left and right ITRs] | – | – | – | > 20 | > 20 |
